Source: patent publication US20050137130A1, “Medical treatment” (priority 2001, published 2005)

System: activated human CD4+ T cells
Assay: Cytokine production (ELISA) by human CD4+ T cells stimulated with anti-CD3/CD28 beads and Delta1 beads, with added soluble protein
Format: cell-based
Details: increasing amounts of soluble protein in culture medium, 3 days
Protocol: M450 Streptavidin Dynabead™ magnetic beads (Dynal, USA) were coated with an anti-human-IgG4 biotinylated monoclonal antibody (BD Bioscience, 555879) by rotating them in the presence of the antibody for 30 minutes at room temperature. Beads were washed three times with PBS (1 ml). They were further incubated with hDelta1-hIgG4 (see Example 1 above) for 2 hours at room temperature and then washed three times with PBS (1 ml).
Human peripheral blood mononuclear cells (PBMC) were purified from blood using Ficoll-Paque separation medium (Pharmacia). Briefly, 28 ml of blood were overlaid on 21 ml of Ficoll-Paque separation medium and centrifuged at 18-20° C. for 40 minutes at 400 g. PBMC were recovered from the interface and washed 3 times before use for CD4+ T cell purification.
The CD4+ T cells were incubated in triplicates in a 96-well-plate (flat bottom) at 10^5 CD4/well/200 μl in RPMI medium containing 10% FCS, glutamine, penicillin, streptomycin and β2-mercaptoethanol.
Cytokine production was induced by stimulating the cells with anti-CD3/CD28 T cell expander beads from Dynal at a 1:1 ratio (bead/cell) in the presence of beads coated with hDelta1-IgG4Fc fusion protein (Example 1 above) at a 5:1 ratio (beads/cell). In some wells, increasing amounts of soluble hdelta1-IgG4Fc fusion protein were also added.
(§1) The supernatants were removed after 3 days of incubation at 37° C./5% CO2/humidified atmosphere and cytokine production was evaluated by ELISA using Pharmingen kits OptEIA Set human IL10 (catalog No. 555157), OptEIA Set human IL-5 (catalog No. 555202) for IL-10 and IL-5 respectively according to the manufacturer's instructions.
Human peripheral blood mononuclear cells (PBMC) were purified from blood using Ficoll-Paque separation medium (Pharmacia). […]
as §1, with “(Catalog” for “(catalog”, “instructions. […]” for “instructions.”

B1: rat Notch1-hIgG1Fc: R&D Systems Catalog No 1057-TK; 12 amino terminal EGF domains of rat Notch-1 fused to the Fc region of human IgG (protein)
chain: ARGLRCSQPSGTCLNGGRCEVANGTEACVCSGAFVGQRCQDPSPCLSTPCKNAGTCYVVDHGGIVDYACSCPLGFSGPLCLTPLANACLANPCRNGGTCDLLTLTEYKCRCPPGWSGKSCQQADPCASNPCANGGQCLPFESSYICGCPPGFHGPTCRQDVNECSQNPGLCRHGGTCHNEIGSYRCACRATHTGPHCELPYVPCSPSPCQNGGTCRPTGDTTHECACLPGFAGQNCEENVDDCPGNNCKNGGACVDGVNTYNCRCPPEWTGQYCTEDVDECQLMPNACQNGGTCHNSHGGYNCVCVNGWTGEDCSENIDDCASAACFQGATCHDRVASFYCECPHGRTGLLCHLNDACISNPCNEGSNCDTNPVNGKAICTCPSGYTGPACSQDVDECALGANPCEHAGKCLNTLGSFECQCLQGYTGPRCEIDVNECISNPCQNDATCLDQIGEFQCICMPGYEGVYCEIEGRMD
modifications: left off: a dimerising Fc or GST
notes: R&D Systems Catalog No 1057-TK; 12 amino terminal EGF domains of rat Notch-1 fused to the Fc region of human IgG
**Q.** For B1, which “effect of added soluble protein on the IL-10 enhancement by bead-immobilised Delta1” value is on record?
**A.** Its value is “inhibited”.
